Measured values published in patent US20240083958A1, “G PROTEIN PEPTIDOMIMETICS” (VRIJE UNIVERSITEIT BRUSSEL, priority 2020, published 2024).
Like-named read-outs stand apart in the source and are kept apart here. One block for each molecule: values may come before it. Bridge positions count the residues as written; N and C are the ends. Square brackets hold non-standard residues; d marks the D form. Primed or numbered codes have the meaning given here. Azk = residue with azidated side chain, clicked to Pra; Pra′ = residue with alkynyl side chain, clicked to Azk; Lys(N3) = [N-]=[N+]=NCCCC[C@H](N)C(=O)O; R8 = C=CCCCCCC[C@@](C)(N)C(=O)O; Cha = N[C@@H](CC1CCCCC1)C(=O)O; R5 = C=CCCC[C@@](C)(N)C(=O)O; S5 = C=CCCC[C@](C)(N)C(=O)O; Pra = C#CC[C@H](N)C(=O)O

Experiments:
[1] = molecular target: dopamine 1 receptor (D1R) (Homo sapiens, UniProt P21728); experiment: GPCR-radioligand binding assay (RLA) with dopamine 1 receptor (D1R), [3H]-SCH23390 as radiolabelled antagonist, A-77636 (agonist), in presence and absence of the peptidomimetic; details: Table 19; peptidomimetic at 10 μM; ratio IC50 D1R alone / IC50 D1R + peptidomimetic
Procedure: For the radioligand assays on D1R a similar buffer, as for β2AR, was used for the ligands, membrane extracts and peptides (+1% DMSO). The competition assay was performed with [^3H]-SCH23390 as radiolabelled antagonist, at a concentration of 2 nM. A ten-fold dilution series of the agonist, A-77636, was prepared to obtain a dose response curve, starting from 100 μM for the receptor alone and 10 μM in the presence of the peptidomimetics. After incubation, the samples were harvested into filter plates, pre-soaked with 0.5% polyethylenimine (PEI), and washed with ice cold washing buffer using the 96-well harvester. After drying in the oven during 1 h and the addition of scintillation liquid, the plates were placed in the MICROBETA® scintillation counter and incubated for 30 min in the dark before reading.
After the Microbeta scintillation counter, the experimental data was further analyzed using Graphpad Prism 6.0. After normalization of the raw data, a nonlinear regression was used to fit the data in a one-site binding model, with the total binding set as 100% and the non-specific binding between 0 and 5%. The IC50 values, obtained from the competition curves, were used to determine the shift for each peptide, which is the ratio of IC50 of the agonist test compound on the basal conformation (e.g. IC50 β2AR with no peptidomimetic) versus the active conformation (e.g. IC50 β2AR+peptidomimetic) of the receptor. For certain peptide analogues, a biphasic binding curve was observed and therefore fitted by a two-site model (nonlinear regression), resulting in two IC50 values (IC50Hi and IC50Lo) and a FractionHi, the fraction of receptors in the active state.
Peptidomimetics were screened using GPCR-radioligand binding assay (RLA) with dopamine 1 receptor (D1R) binding, using [^3H]-SCH23390 as radiolabelled antagonist, and increasing concentrations of A-77636 (agonist). The half maximal inhibitory concentration (IC50) represents the affinity of the agonist for the receptor. The selectivity is quantified by the shift. “[ ]” denotes cyclic peptides.

[2] = molecular target: T1, human β2AR (human, UniProt P07550 2-365); experiment: cell-based or functional assay
[3] = molecular target: T1, human β2AR; experiment: cell-based or functional assay; remark: listed apart in the source
[4] = molecular target: T1, human β2AR; experiment: cell-based or functional assay; remark: listed apart in the source
[5] = molecular target: dopamine 1 receptor (D1R) (UniProt P21728 1-446, limits assumed); experiment: cell-based or functional assay
[6] = molecular target: T1, human β2AR; experiment: cell-based or functional assay; remark: listed apart in the source
[7] = molecular target: T1, human β2AR; experiment: cell-based or functional assay; remark: listed apart in the source
[8] = molecular target: T1, human β2AR; experiment: cell-based or functional assay; remark: listed apart in the source
[9] = molecular target: T1, human β2AR; experiment: cell-based or functional assay; remark: listed apart in the source
[10] = molecular target: T1, human β2AR; experiment: cell-based or functional assay; remark: listed apart in the source
[11] = molecular target: T1, human β2AR; experiment: cell-based or functional assay; remark: listed apart in the source
[12] = molecular target: T1, human β2AR; experiment: cell-based or functional assay; remark: listed apart in the source

Chain of dopamine 1 receptor (D1R) (UniProt P21728 1-446, limits assumed) (P21728 whole entry): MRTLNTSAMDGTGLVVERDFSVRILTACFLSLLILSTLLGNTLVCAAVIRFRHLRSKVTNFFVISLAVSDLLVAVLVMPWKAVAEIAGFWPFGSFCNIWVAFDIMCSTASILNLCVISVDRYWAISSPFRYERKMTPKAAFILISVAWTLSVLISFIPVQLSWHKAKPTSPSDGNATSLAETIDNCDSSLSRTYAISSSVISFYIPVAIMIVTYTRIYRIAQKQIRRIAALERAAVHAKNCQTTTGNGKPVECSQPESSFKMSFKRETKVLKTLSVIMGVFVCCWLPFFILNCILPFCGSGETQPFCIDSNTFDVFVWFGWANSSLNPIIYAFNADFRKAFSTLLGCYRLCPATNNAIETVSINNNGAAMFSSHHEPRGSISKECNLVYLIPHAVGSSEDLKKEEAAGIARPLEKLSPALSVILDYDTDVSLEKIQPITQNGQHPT
Chain of dopamine 1 receptor (D1R) (Homo sapiens, UniProt P21728) (P21728 whole entry): as above

Molecule: Ac-FNDCRDIIQRMHLRQYEChaL-OH (FNDCRDIIQRMHLRQYEXL; HELM PEPTIDE1{[ac].F.N.D.C.R.D.I.I.Q.R.M.H.L.R.Q.Y.E.[Cha].L}$$$$V2.0; SMILES CC[C@H](C)[C@H](NC(=O)[C@H](CC(=O)O)NC(=O)[C@H](CCCNC(=N)N)NC(=O)[C@H](CS)NC(=O)[C@H](CC(=O)O)NC(=O)[C@H](CC(N)=O)NC(=O)[C@H](Cc1ccccc1)NC(C)=O)C(=O)N[C@H](C(=O)N[C@@H](CCC(N)=O)C(=O)N[C@@H](CCCNC(=N)N)C(=O)N[C@@H](CCSC)C(=O)N[C@@H](Cc1c[nH]cn1)C(=O)N[C@@H](CC(C)C)C(=O)N[C@@H](CCCNC(=N)N)C(=O)N[C@@H](CCC(N)=O)C(=O)N[C@@H](Cc1ccc(O)cc1)C(=O)N[C@@H](CCC(=O)O)C(=O)N[C@@H](CC1CCCCC1)C(=O)N[C@@H](CC(C)C)C(=O)O)[C@@H](C)CC) [compound 63]
Shift [1]: 24

Shift [1]: 32
Molecule: Ac-KKKFN[PraCRDAzk]IQRMHLRQYELL-OH (Ac-KKKFN[Pra]CRD[Lys(N3)]IQRMHLRQYELL-OH; triazole 6-10) [compound 42]

Shift (averaged) [2]: 203
Fraction HI (%) [3]: 81%
IC50 (nM) of isoproterenol, [3H]-DHA RLA, peptidomimetic present [3]: 7.3 nM
Shift [3]: 217
IC50 (nM) of isoproterenol, [3H]-DHA RLA, peptidomimetic present [4]: 3.96 nM
Shift [4]: 198
IC50 (nM) of A-77636, [3H]-SCH23390 RLA, compound 63 at 10 µM [5]: 0.55 nM
IC50 (nM) of isoproterenol, [3H]-DHA RLA, peptidomimetic present [6]: 6.88 nM
Shift [6]: 118
B1: compound 63 (peptide)
peptide: FNDCRDIIQRMHLRQYEXL
HELM: PEPTIDE1{[ac].F.N.D.C.R.D.I.I.Q.R.M.H.L.R.Q.Y.E.[Cha].L}$$$$V2.0
SMILES: CC[C@H](C)[C@H](NC(=O)[C@H](CC(=O)O)NC(=O)[C@H](CCCNC(=N)N)NC(=O)[C@H](CS)NC(=O)[C@H](CC(=O)O)NC(=O)[C@H](CC(N)=O)NC(=O)[C@H](Cc1ccccc1)NC(C)=O)C(=O)N[C@H](C(=O)N[C@@H](CCC(N)=O)C(=O)N[C@@H](CCCNC(=N)N)C(=O)N[C@@H](CCSC)C(=O)N[C@@H](Cc1c[nH]cn1)C(=O)N[C@@H](CC(C)C)C(=O)N[C@@H](CCCNC(=N)N)C(=O)N[C@@H](CCC(N)=O)C(=O)N[C@@H](Cc1ccc(O)cc1)C(=O)N[C@@H](CCC(=O)O)C(=O)N[C@@H](CC1CCCCC1)C(=O)N[C@@H](CC(C)C)C(=O)O)[C@@H](C)CC

Shift (averaged) [7]: 2
IC50 (nM) of isoproterenol, [3H]-DHA RLA, peptidomimetic present [8]: 433 nM
Shift [8]: 2
B2: compound 14 (peptide)
peptide: Ac-FNDCRD[R8]IQRMHL[S5]QYELL-OH
modifications: staple 7-14
SMILES: CC[C@H](C)[C@@H]1NC(=O)[C@](C)(NC(=O)[C@H](CC(=O)O)NC(=O)[C@H](CCCNC(=N)N)NC(=O)[C@H](CS)NC(=O)[C@H](CC(=O)O)NC(=O)[C@H](CC(N)=O)NC(=O)[C@H](Cc2ccccc2)NC(C)=O)CCCCCCC=CCCC[C@@](C)(C(=O)N[C@@H](CCC(N)=O)C(=O)N[C@@H](Cc2ccc(O)cc2)C(=O)N[C@@H](CCC(=O)O)C(=O)N[C@@H](CC(C)C)C(=O)N[C@@H](CC(C)C)C(=O)O)NC(=O)[C@H](CC(C)C)NC(=O)[C@H](Cc2c[nH]cn2)NC(=O)[C@H](CCSC)NC(=O)[C@H](CCCNC(=N)N)NC(=O)[C@H](CCC(N)=O)NC1=O

Shift (averaged) [2]: 49
IC50 (nM) of isoproterenol, [3H]-DHA RLA, peptidomimetic present [9]: 27.4 nM
Shift [9]: 42
IC50 (nM) of A-77636, [3H]-SCH23390 RLA, compound 42 at 10 µM [5]: 0.41 nM
B3: compound 42 (peptide)
peptide: Ac-KKKFN[Pra′]CRD[Azk]IQRMHLRQYELL-OH
modifications: triazole 6-10

Shift (averaged) [7]: 7
IC50 (nM) of isoproterenol, [3H]-DHA RLA, peptidomimetic present [10]: 116 nM
Shift [10]: 7
B4: compound 11 (peptide)
peptide: Ac-FNDCRD[Pra′]IQR[Azk]HLRQYELL-OH
modifications: triazole 7-11

Fraction HI (%) [11]: 83%
IC50 (nM) of isoproterenol, [3H]-DHA RLA, peptidomimetic present [11]: 2.8 nM
Shift [11]: 580
IC50 (nM) of isoproterenol, [3H]-DHA RLA, compound 51 at 1 µM [12]: 56.4 nM
IC50 (nM) of isoproterenol, [3H]-DHA RLA, compound 51 at 10 µM [12]: 6.7 nM
IC50 (nM) of isoproterenol, [3H]-DHA RLA, compound 51 at 50 µM [12]: 6.9 nM
IC50 (nM) of isoproterenol, [3H]-DHA RLA, compound 51 at 100 µM [12]: 3.4 nM
Shift (averaged) [2]: 400
IC50 (nM) of A-77636, [3H]-SCH23390 RLA, compound 51 at 10 µM [5]: 0.25 nM
B5: compound 51 (peptide)
peptide: Ac-KKKFN[Pra′]CRD[Azk]IQRMHLRQYE[Cha]L-OH
modifications: triazole 6-10

Shift (averaged) [7]: 3
IC50 (nM) of isoproterenol, [3H]-DHA RLA, peptidomimetic present [8]: 312 nM
Shift [8]: 3
B6: compound 13 (peptide)
peptide: Ac-FNDCRDIIQR[R5]HL[S5]QYELL-OH
modifications: staple 11-14
SMILES: CC[C@H](C)[C@H](NC(=O)[C@H](CC(=O)O)NC(=O)[C@H](CCCNC(=N)N)NC(=O)[C@H](CS)NC(=O)[C@H](CC(=O)O)NC(=O)[C@H](CC(N)=O)NC(=O)[C@H](Cc1ccccc1)NC(C)=O)C(=O)N[C@H](C(=O)N[C@@H](CCC(N)=O)C(=O)N[C@@H](CCCNC(=N)N)C(=O)N[C@]1(C)CCCC=CCCC[C@@](C)(C(=O)N[C@@H](CCC(N)=O)C(=O)N[C@@H](Cc2ccc(O)cc2)C(=O)N[C@@H](CCC(=O)O)C(=O)N[C@@H](CC(C)C)C(=O)N[C@@H](CC(C)C)C(=O)O)NC(=O)[C@H](CC(C)C)NC(=O)[C@H](Cc2c[nH]cn2)NC1=O)[C@@H](C)CC
